Measured values taken from patent publication US11278600B2, “Human alpha-galactosidase variants” (Codexis, Inc., priority 2014, dated 2022).
Residue numbers refer to the chain shown, from its start.

B1: 271 (protein)
chain: LDNGLARTPTMGWLHWERFMCNLDCQEEPDSCISEKLFMEMAERMVSEGWKDAGYEYLCIDDCWMAPQRDSEGRLQADPQRFPHGIRQLANYVHSKGLKLGIYADVGNKTCAGFPGSFGYYDIDAQTFADWGVDLLKFDGCYCDSLENLADGYKHMSLALNRTGRSIVYSCEWPLYMWPFQKPNYTGIRQYCNHWRNFADIDDSWASIKSILDWTSFNQERIVDVAGPGGWNDPDMLVIGNFGLSWNQQVTQMALWAIMAAPLFMSNDLRHISPQAKALLQDKDVIAINQDPLGKQGYQLRQGDNFEVWERPLSGLAWAVAMINRQEIGGPRSYTIPVASLGKGVACNPGCFITQLLPVKRKLGFYEWTSRLRSHINPTGTVLLQLENTMQMSLKDLL
modifications: Synthetic Polypeptide sequence of Variant No. 271 of mature Human GLA
B2: 279 (protein)
chain: B1 chain with G187E, F217R, N247D, Q302K, P337A
modifications: Synthetic Polypeptide sequence of Variant No. 279 of mature Human GLA
B3: 278 (protein)
chain: B1 chain with G187E, F217R, N247D, L316D, P337A, E367D, T369D
modifications: Synthetic Polypeptide sequence of Variant No. 278 of mature Human GLA
B4: 273 (protein)
chain: B1 chain with G187E, P337A, G350A, E367D, T369D
modifications: Synthetic Polypeptide sequence of Variant No. 273 of mature Human GLA
B5: 272 (protein)
chain: B1 chain with G187E, P337A, G350A
modifications: Synthetic Polypeptide sequence of Variant No. 272 of mature Human GLA
B6: 275 (protein)
chain: B1 chain with G187E, F217R, N247D, G350A
modifications: Synthetic Polypeptide sequence of Variant No. 275 of mature Human GLA
B7: 274 (protein)
chain: B1 chain with G187E, F217R, P337A
modifications: Synthetic Polypeptide sequence of Variant No. 274 of mature Human GLA
B8: 277 (protein)
chain: B1 chain with G187E, F217R, N247D, L316D, G350A, E367D, T369D
modifications: Synthetic Polypeptide sequence of Variant No. 277 of mature Human GLA
B9: 276 (protein)
chain: B1 chain with G187E, F217R, N247D, L316D, E367D, T369D
modifications: Synthetic Polypeptide sequence of Variant No. 276 of mature Human GLA

assay: HTP-analysis of supernatants pretreated with acid (MUGal hydrolysis); format: biochemical; conditions: challenge at pH 4.2; activity of the variant/activity of Rd2BB (SEQ ID NO: 10); yeast culture supernatant
How it was run: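 Supernatants from INVSc1 yeast secreting GLA variants were challenged at 37° C. for 1-3 h in McIlvaine buffer at pH 3.3-4.3. Residual activity was then measured on 4 mM MUGal substrate stock at pH 4.8 with citrate buffer pH 4.3, over 30-180 min at 37° C. Reactions were quenched with sodium carbonate and read by fluorescence (Ex 355/Em 448 nm).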

Which “Relative Activity of GLA Variants After Challenge at pH 4.2” value (“Relative Activity … at pH 4.2” below) does the source give for B1 here?
The value was “+ (+ = 0.5 to 1.5 relative activity over Rd2BB (SEQ ID NO: 10))”.

Which “Relative Activity … at pH 4.2” value does the source give for B2 here?
The value was “+++ (+++ = >2.5 relative activity over Rd2BB (SEQ ID NO: 10))”.

With B3 as the molecule, how does the “Relative Activity … at pH 4.2” value read?
Its value is “+++ (+++ = >2.5 relative activity over Rd2BB (SEQ ID NO: 10))”.

For B4, which “Relative Activity … at pH 4.2” value is on record?
Its value is “+ (+ = 0.5 to 1.5 relative activity over Rd2BB (SEQ ID NO: 10))”.

For B5, which “Relative Activity … at pH 4.2” value is on record?
The value was “+ (+ = 0.5 to 1.5 relative activity over Rd2BB (SEQ ID NO: 10))”.

For B6, which “Relative Activity … at pH 4.2” value is on record?
The value was “++ (++ = 1.5 to 2.5 relative activity over Rd2BB (SEQ ID NO: 10))”.

For B7, which “Relative Activity … at pH 4.2” value is on record?
The value was “+ (+ = 0.5 to 1.5 relative activity over Rd2BB (SEQ ID NO: 10))”.

For B8, which “Relative Activity … at pH 4.2” value is on record?
The value was “+++ (+++ = >2.5 relative activity over Rd2BB (SEQ ID NO: 10))”.

Which “Relative Activity … at pH 4.2” value does the source give for B9 here?
Its value is “+++ (+++ = >2.5 relative activity over Rd2BB (SEQ ID NO: 10))”.

assay: HTP-analysis of yeast culture supernatants, no challenge (MUGal hydrolysis); format: biochemical; conditions: activity of the variant/activity of Rd2BB (SEQ ID NO: 10), yeast culture supernatant
How it was run: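 Activity read as 4-methylumbelliferyl α-D-galactopyranoside hydrolysis: fluorescence (355/448 nm) after sodium carbonate stop, following 30-180 min at 37° C with 2 mM MUGal stock at pH 4.6–4.8. Enzyme source is unchallenged culture supernatant of INVSc1 yeast expressing GLA variants, grown 66-84 h at 30° C.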

For B1, which “Relative Activity of GLA Variants After No Challenge (NC)” value is on record?
The value was “− (− = <0.5 relative activity over Rd2BB (SEQ ID NO: 10))”.

Which “Relative Activity of GLA Variants After No Challenge (NC)” value does the source give for B2 here?
The value was “++ (++ = 1.5 to 2.5 relative activity over Rd2BB (SEQ ID NO: 10))”.

With B3 as the molecule, how does the “Relative Activity of GLA Variants After No Challenge (NC)” value read?
Its value is “+++ (+++ = >2.5 relative activity over Rd2BB (SEQ ID NO: 10))”.

With B4 as the molecule, how does the “Relative Activity of GLA Variants After No Challenge (NC)” value read?
Its value is “+ (+ = 0.5 to 1.5 relative activity over Rd2BB (SEQ ID NO: 10))”.

For B5, which “Relative Activity of GLA Variants After No Challenge (NC)” value is on record?
Its value is “+ (+ = 0.5 to 1.5 relative activity over Rd2BB (SEQ ID NO: 10))”.

For B6, which “Relative Activity of GLA Variants After No Challenge (NC)” value is on record?
The value was “++ (++ = 1.5 to 2.5 relative activity over Rd2BB (SEQ ID NO: 10))”.

Which “Relative Activity of GLA Variants After No Challenge (NC)” value does the source give for B7 here?
The value was “+ (+ = 0.5 to 1.5 relative activity over Rd2BB (SEQ ID NO: 10))”.

For B8, which “Relative Activity of GLA Variants After No Challenge (NC)” value is on record?
The value was “+++ (+++ = >2.5 relative activity over Rd2BB (SEQ ID NO: 10))”.

Which “Relative Activity of GLA Variants After No Challenge (NC)” value does the source give for B9 here?
Its value is “+++ (+++ = >2.5 relative activity over Rd2BB (SEQ ID NO: 10))”.

assay: HTP-analysis of supernatants pretreated with base (MUGal hydrolysis); format: biochemical; conditions: challenge at pH 7.6; activity of the variant/activity of Rd2BB (SEQ ID NO: 10); yeast culture supernatant
How it was run: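 Fluorescence of released 4-MU (Ex 355 nm, Em 448 nm) after carbonate quench reports MUGal hydrolysis by GLA variants secreted from INVSc1 yeast. Before the acidic (pH 4.3-4.8) 30-180 min reaction at 37° C, supernatants had been pre-incubated at pH 7.0-9.7 for 1-18 h at 37° C.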

With B1 as the molecule, how does the “Relative Activity of GLA Variants After Challenge at pH 7.6” value (shortened to “Relative Activity … at pH 7.6”) read?
The value was “+ (+ = 0.5 to 1.5 relative activity over Rd2BB (SEQ ID NO: 10))”.

With B2 as the molecule, how does the “Relative Activity … at pH 7.6” value read?
Its value is “+++ (+++ = >2.5 relative activity over Rd2BB (SEQ ID NO: 10))”.

Which “Relative Activity … at pH 7.6” value does the source give for B3 here?
Its value is “+++ (+++ = >2.5 relative activity over Rd2BB (SEQ ID NO: 10))”.

With B4 as the molecule, how does the “Relative Activity … at pH 7.6” value read?
Its value is “+ (+ = 0.5 to 1.5 relative activity over Rd2BB (SEQ ID NO: 10))”.

With B5 as the molecule, how does the “Relative Activity … at pH 7.6” value read?
The value was “+ (+ = 0.5 to 1.5 relative activity over Rd2BB (SEQ ID NO: 10))”.

With B6 as the molecule, how does the “Relative Activity … at pH 7.6” value read?
The value was “++ (++ = 1.5 to 2.5 relative activity over Rd2BB (SEQ ID NO: 10))”.

Which “Relative Activity … at pH 7.6” value does the source give for B7 here?
Its value is “+ (+ = 0.5 to 1.5 relative activity over Rd2BB (SEQ ID NO: 10))”.

Which “Relative Activity … at pH 7.6” value does the source give for B8 here?
The value was “+++ (+++ = >2.5 relative activity over Rd2BB (SEQ ID NO: 10))”.

For B9, which “Relative Activity … at pH 7.6” value is on record?
The value was “+++ (+++ = >2.5 relative activity over Rd2BB (SEQ ID NO: 10))”.

assay: HTP-analysis of supernatants pretreated with bovine serum (MUGal hydrolysis); format: biochemical; conditions: activity of the variant/activity of Rd2BB (SEQ ID NO: 10), yeast culture supernatant
How it was run: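 Yeast INVSc1 culture supernatants containing secreted GLA variants were mixed with bovine serum (20:80) and held 1 h at 37° C. Serum-treated samples then reacted with MUGal (4 mM stock) in citrate/McIlvaine buffer (pH 4.3/4.8) for 180 min at 37° C., were quenched with sodium carbonate, and read by fluorescence (Ex 355, Em 448 nm).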

Which “Relative Activity of GLA Variants After Challenge with Serum” value (“Relative Activity … with Serum” for short) does the source give for B1 here?
Its value is “+ (+ = 0.5 to 1.5 relative activity over Rd2BB (SEQ ID NO: 10))”.

Which “Relative Activity … with Serum” value does the source give for B2 here?
The value was “+++ (+++ = >2.5 relative activity over Rd2BB (SEQ ID NO: 10))”.

Which “Relative Activity … with Serum” value does the source give for B3 here?
The value was “+++ (+++ = >2.5 relative activity over Rd2BB (SEQ ID NO: 10))”.

Which “Relative Activity … with Serum” value does the source give for B4 here?
Its value is “+ (+ = 0.5 to 1.5 relative activity over Rd2BB (SEQ ID NO: 10))”.

For B5, which “Relative Activity … with Serum” value is on record?
Its value is “+ (+ = 0.5 to 1.5 relative activity over Rd2BB (SEQ ID NO: 10))”.

With B6 as the molecule, how does the “Relative Activity … with Serum” value read?
Its value is “++ (++ = 1.5 to 2.5 relative activity over Rd2BB (SEQ ID NO: 10))”.

With B7 as the molecule, how does the “Relative Activity … with Serum” value read?
The value was “+ (+ = 0.5 to 1.5 relative activity over Rd2BB (SEQ ID NO: 10))”.

With B8 as the molecule, how does the “Relative Activity … with Serum” value read?
Its value is “+++ (+++ = >2.5 relative activity over Rd2BB (SEQ ID NO: 10))”.

For B9, which “Relative Activity … with Serum” value is on record?
The value was “+++ (+++ = >2.5 relative activity over Rd2BB (SEQ ID NO: 10))”.
